# Laboratory results as given in the supplement of paper PMC12042874.
# ± gives the uncertainty stated by the source.
# Experiment: amyloid nucleation score (Sup35N fusion, yeast selection) (log enrichment); library NNK3; higher = more nucleation; inactive = no reads after selection
# In short: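 The nucleation score equals the log enrichment of output over input reads from DiMSum, centred on the mode score of non-aggregating sequences. It was computed only for sequences with 100 or more input reads. The reads came from Illumina sequencing of plasmid inserts from psi-negative yeast expressing Sup35N fused to peptides of 20 random codons, induced with 100 μM copper sulfate for 24 hours and grown 7 days at 30°C without adenine and uracil.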
row,Substance,amyloid nucleation score
1,NLDIFGNKMLMGRRGMLNMS,inactive
2,KGALRFITYSSMLVYYLNLG,inactive
3,LFELDKLNRVHLNGVMGVII,inactive
4,WCAWAVTCLTGVISRPLHES,0.042 ± 0.43
5,SYHYHATILSWTYYVTVYFL,inactive
6,FVDLSGRSCRVPTEVWGFHS,inactive
7,SKPNMAELKLHFTGYPHPAK,inactive
8,KEFCVRPLYRFSVRMNIC,0.035 ± 0.62
9,FSHVV,inactive
10,FSIVMTRFSFGSRVGSFYNF,0.151 ± 0.44
11,FIDMN,inactive
12,GADMKTRRSARGLMWTMGSS,inactive
13,ADNTDMKMTEVGTHHNGNQN,inactive
14,MLWYLESWLTLHGTVECNVW,inactive
15,HIFDNSYIFLDLLLARKY,1.87 ± 0.061
16,FSSRVRTMPLVGVM,inactive
17,YSNYCGQFSIVPIVFFYIVI,1.1 ± 0.15
18,AGWNMLVMTLCSTLFSQY,inactive
19,IPGYLLDHTAHK,inactive
20,LVTFFSGRYGHWWLDNCWRQ,inactive
21,HSLWRLGYYM,0.912 ± 0.15
22,YYRLFLI,inactive
23,CGIRHTVLVVSRVGGYVWCL,-0.156 ± 1.1

row,Substance,amyloid nucleation score
1,NLDLGVDLGMQPIGSIKKST,inactive
2,DLSTTLINPIEEQPYHFAVP,inactive
3,FVLGGFLNKN,-0.11 ± 1.4
4,YCAYLLRSLWLGTAWEWWRQ,inactive
5,RISINGFNNLNYLLS,1.39 ± 0.1
6,NAYSKNVFQHVGMHTWSWYL,inactive
7,RVFEVEKLVEIGGTMLHESN,inactive
8,SIFSLLCVRLRGEVAPSRLM,inactive
9,FSDVGLWFGAYRKVVVVKLF,inactive
10,TIFEAA,inactive
11,SHPASVFGGKRMGCCSRPKG,-0.304 ± 1.1
12,LSDAR,inactive
13,KLKFMPRLSHKWDRDQLRVH,inactive
14,IIHGHHWFGYNSRLCC,inactive
15,FNSYHTANRYI,inactive
16,ECVFIKFWVEGWKTLWSWSA,inactive
17,FVIELCMWVRLEDVKLCFID,inactive
18,YDNVVYLIVGHYG,inactive
19,DVLHLRCREVRRDVGYVTEF,inactive
20,SPLYGYGDKRQVRYLLTGSC,inactive
21,SSMLI,inactive
22,PTQNKSDKVACGR,inactive
23,VFYGKGETYQEWHSLYFLKS,-0.067 ± 0.98

row,Substance,amyloid nucleation score
1,IRMYSIWREDVSRRKARCMW,inactive
2,VGYLCFLFQTDSFI,inactive
3,AGLSQNRSRIRSY,-0.2 ± 0.81
4,SPWYVVFMCNLIFYKGEFTR,inactive
5,SYRHCNWDAKKVAIGTVVWD,inactive
6,VRVMDLVGKALSTSSVANLA,inactive
7,PHNLNGPS,-0.68 ± 1.9
8,VKKDMRRLLMFRIGGKSFGG,inactive
9,CSRALYGCDRISRGLLEVCG,inactive
10,IQDFSCFQRSEAVTIQGRS,inactive
11,RCICTRFLVPWDSIA,inactive
12,SYGDPCQAKGQIRIVYGWHW,0.308 ± 0.25
13,PKAGALQQFMMRHSSHFQLS,inactive
14,SCFCQILPFRV,inactive
15,SCQSGMSLCLSDHRLA,inactive
16,GRKKVVTWQLLARQP,inactive
17,SSDILASFGCYSNFHLSHII,inactive
18,LIACNVPVVEVRTSIGVKDI,inactive
19,FEEYAIYPVAKGSVKMDAAL,inactive
20,DAISVLCFLLKSFRWSTFRG,inactive
21,YICVMWMYSCKLSLPMWHPR,inactive
22,GIHHFF,inactive
23,FDFRFYQVVVGGCRIETVIV,inactive

row,Substance,amyloid nucleation score
1,DSDYGNVVWRFYRSYGCTGL,inactive
2,DMVSRSSCSDL,inactive
3,LINGTGDRMYTDLLL,inactive
4,AQEYRMQHRLGGL,inactive
5,LVIWHIVKTAVMWTARTERL,-0.409 ± 1.5
6,VWGYSMYVLQIWERYSSNV,1.01 ± 0.13
7,ILHFRETLTRINNLEA,inactive
8,SLRVLWCIRLKCSCLCWISG,inactive
9,GSRVN,-0.352 ± 0.36
10,PLRSTKSIIVLMDEMRLIAN,inactive
11,LNMCLSLVSVLRAVSVYLWT,inactive
12,FVGIIGWMIYVEGVY,inactive
13,VYAVIDWRDLCF,inactive
14,LVEIIHVSLVFLP,inactive
15,CSNRFSNHFMYYVSMLGDGL,inactive
16,FSVVLYKRWWRTRMATGLLK,inactive
17,HINARRLYFTYV,inactive
18,PGVLLVWLSYSGSRLLS,inactive
19,RYFAMGFRNSCYL,2.02 ± 0.065
20,ERRNRMFSWCWCSSSLLDAE,-0.08 ± 1
21,SITQSRLTP,-0.196 ± 0.36
22,VYFRFYNL,1.36 ± 0.073
23,RFEFDQVFMF,1.32 ± 0.13

row,Substance,amyloid nucleation score
1,EDIEMEMLLLGCNLEVLNAK,inactive
2,YMLCC,inactive
3,EYYRWFYN,inactive
4,HPLAAGHGVYFSSCIFK,1.7 ± 0.097
5,DSLYWCSPFNGHCSDNNTQN,inactive
6,NDVKFGSGR,inactive
7,CWDEIHIMKAHIRSYGGSVS,inactive
8,RKNVRMMA,inactive
9,TNANRIGMGYDMNNYSTHYR,inactive
10,YSQLRARMKCVYLGY,inactive
11,QQHDELCGVHMGSGHF,inactive
12,NCINVYGNTNLLRGPVGTSG,inactive
13,TCLVGHDKKIDFIV,inactive
14,RLHVRCNCDLSDGVPRAVCE,0.599 ± 0.23
15,PFLYGRYFVAISNS,inactive
16,VCTFTETHGTYLVFALYQPD,0.367 ± 0.54
17,GAHANM,inactive
18,VSEIW,inactive
19,VRKVSTAPAELHAIKSGDTH,inactive
20,SGCVKLVVNTCLRYY,inactive
21,GDNSLTYMSAM,inactive
22,VTRHEFVLLLETVPISYWPH,inactive
23,ASRIDINRIWFVFWIQAIKS,inactive

row,Substance,amyloid nucleation score
1,HTGNLYHLSWCV,inactive
2,AGEKPNSIFYSTHSSRSFSN,0.965 ± 0.17
3,WRFGRVFDWGRLHLGVDRCR,inactive
4,RNSRTVRRDLQINCR,inactive
5,VRACNRLVYRFGDTVISDKR,inactive
6,IRSRTVTWQQWQLHSRNGRS,0.086 ± 0.56
7,YEIFSVSLR,-0.221 ± 0.9
8,LNVCVMEKNSNLRWSYWDLC,1.09 ± 0.15
9,MYFMGLFFMTGVGFSMKEVE,inactive
10,IVTVLNSVLGKGFQQAPRRG,inactive
11,LFFYFLEPR,inactive
12,GGRTM,inactive
13,HHLSTRINCIDRVRSPNLRL,-0.708 ± 1.4
14,VGSRAGYMRQLSVSACTRVL,inactive
15,FYYSVHFLF,inactive
16,YRTARVSG,inactive
17,RSSESNIICTTLRYLSVVVY,inactive
18,YRESDKVTFWLYLSRVDDLD,2.06 ± 0.083
19,IITTHSFQTDWHISEYQDIC,inactive
20,FLTSVGIAYAKFRLGYSCLL,inactive
21,VLMECSNFAVEQTARLVPVR,inactive
22,SFNFSPCVYTCVRMCIWGYF,inactive
23,SYCDSNRGVDLV,-0.611 ± 0.75

row,Substance,amyloid nucleation score
1,YRFFVKYMLLIYLINFNIFL,0.057 ± 0.6
2,YMLMGMVLRDRDRT,1.69 ± 0.088
3,LPFIRV,0.007 ± 0.27
4,MQICSCYRFSD,2.45 ± 0.071
5,YSAVSTSVMCAE,inactive
6,SQNAQESIPMRKFITPSRVF,inactive
7,SSNDDFWIKGGQCEYIRFRL,inactive
8,INPMGITDSVCSTAASG,inactive
9,TVLGELKVLFRYWFHIIWYF,inactive
10,FTNLYMPTRERHCRGSHMW,inactive
11,SNVNTAWKRFTRI,inactive
12,SSLKWYTHPAMCYAHTWSIT,inactive
13,VEIISFSVNKTFQAVFGVDK,1.47 ± 0.072
14,SKKSDF,inactive
15,GGVTYRQDLTRYLSG,inactive
16,WAPLQALSFGK,inactive
17,MINWHSRMSSEG,inactive
18,TVLYFA,inactive
19,RCNGTL,inactive
20,SISVNVCRWTRCLGTQLLSV,inactive
21,SNFAMGVRLY,inactive
22,GYYANGISRPVILLMFWRVR,inactive
23,QARVRYDASTLLFGCTFC,2.65 ± 0.079
